This note sets out measurements from patent US20180030144A1 (INNATE PHARMA, published 2018).

The target of assay [1] is T1, human CD73 expressed at the cell surface (human, UniProt P21589 27-549).
T1 sequence: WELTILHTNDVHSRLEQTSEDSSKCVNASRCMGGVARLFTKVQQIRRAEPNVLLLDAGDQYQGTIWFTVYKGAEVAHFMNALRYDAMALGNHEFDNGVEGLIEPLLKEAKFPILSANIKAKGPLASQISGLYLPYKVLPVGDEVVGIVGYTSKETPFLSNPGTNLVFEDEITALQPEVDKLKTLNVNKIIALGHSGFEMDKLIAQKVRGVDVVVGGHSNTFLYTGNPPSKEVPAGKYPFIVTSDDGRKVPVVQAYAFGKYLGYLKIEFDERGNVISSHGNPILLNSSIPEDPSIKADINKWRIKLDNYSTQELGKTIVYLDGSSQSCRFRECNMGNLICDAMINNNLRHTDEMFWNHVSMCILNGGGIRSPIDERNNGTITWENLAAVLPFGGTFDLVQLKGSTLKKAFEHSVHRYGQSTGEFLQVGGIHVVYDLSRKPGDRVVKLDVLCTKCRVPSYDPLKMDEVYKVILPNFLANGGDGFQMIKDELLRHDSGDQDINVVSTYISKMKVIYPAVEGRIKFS
In words: cell-based or functional assay.

Assay [2] concerns the target T1, human CD73 expressed at the cell surface. Description: cell-based or functional assay. The source holds these as a separate data set.
Assay [3] deals with T2, human CD73 mutant 17 (human, UniProt P21589 27-549).
T2 construct: Transfected in HEK293T cells
T2 chain: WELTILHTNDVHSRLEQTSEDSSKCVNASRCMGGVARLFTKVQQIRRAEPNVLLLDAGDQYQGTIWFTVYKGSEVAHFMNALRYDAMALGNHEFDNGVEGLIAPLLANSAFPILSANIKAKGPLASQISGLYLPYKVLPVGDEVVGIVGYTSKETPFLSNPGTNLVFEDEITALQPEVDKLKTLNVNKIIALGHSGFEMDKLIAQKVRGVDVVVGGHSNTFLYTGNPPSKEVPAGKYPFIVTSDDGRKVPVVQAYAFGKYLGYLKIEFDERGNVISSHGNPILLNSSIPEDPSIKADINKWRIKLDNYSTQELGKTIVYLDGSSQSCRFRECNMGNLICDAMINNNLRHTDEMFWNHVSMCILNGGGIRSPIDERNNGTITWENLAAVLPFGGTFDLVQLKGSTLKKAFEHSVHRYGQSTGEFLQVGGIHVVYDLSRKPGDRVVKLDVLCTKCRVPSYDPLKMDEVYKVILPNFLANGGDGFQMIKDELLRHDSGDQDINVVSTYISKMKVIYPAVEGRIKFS
Description: flow cytometry, HEK293T transfectants. In general terms: In flow cytometry, cells or beads pass a laser one at a time.

The target in assay [4] is T3, recombinant human CD73-His extracellular domain protein (soluble dimer) (human, UniProt P21589 27-547).
T3 construct: Purified as a dimer; also called huCD73; soluble recombinant human CD73
T3 sequence: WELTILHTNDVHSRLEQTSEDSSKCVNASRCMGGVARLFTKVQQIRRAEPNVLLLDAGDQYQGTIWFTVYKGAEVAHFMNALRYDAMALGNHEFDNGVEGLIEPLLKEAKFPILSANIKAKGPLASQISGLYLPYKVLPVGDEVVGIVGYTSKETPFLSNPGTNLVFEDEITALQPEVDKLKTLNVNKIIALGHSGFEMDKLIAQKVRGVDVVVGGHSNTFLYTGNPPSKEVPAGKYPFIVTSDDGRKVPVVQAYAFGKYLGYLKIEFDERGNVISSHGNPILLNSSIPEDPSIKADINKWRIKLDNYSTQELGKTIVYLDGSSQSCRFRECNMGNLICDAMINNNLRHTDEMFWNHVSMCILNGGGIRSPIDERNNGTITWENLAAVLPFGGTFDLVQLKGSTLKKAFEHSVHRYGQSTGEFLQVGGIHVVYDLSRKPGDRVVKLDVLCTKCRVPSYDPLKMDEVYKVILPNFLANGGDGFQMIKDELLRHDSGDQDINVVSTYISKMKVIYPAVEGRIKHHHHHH
In words: ELISA, plate-coated recombinant human CD73. The method, then: 5 μg/ml of recombinant human CD73 protein (IPH, isoform E6) was coated on MaxiSorp ELISA plates (Nunc) in PBS, overnight at 4° C. Plates were washed 5 times in washing buffer (PBS, 0.05% Tween20) and unspecific sites were saturated by adding 200 μl/w TBS starting block buffer (Thermo Ficher). Dose-range of anti-CD73 antibodies were incubated for 2 h at 37° C. Plates were washed 5 times in washing buffer and HRP-coupled goat anti-human or goat anti-mouse IgG Fc fragment secondary antibody (Bethyl, 1/50000) was added for 1 hr at RT to detect bound anti-CD73 antibodies. […] The enzymatic reaction was stopped by adding HCl 1M and O.D. was measured at 450 nm. Optical density vs. anti-CD73 Ab concentration was plotted on graphs and EC50 is calculated using GraphPad Prism software.
(In general: ELISA stands for enzyme-linked immunosorbent assay.)

For assay [5], the target named is T3, recombinant human CD73-His …. Description: cell-based or functional assay.
The target is the same in assay [6]. Description: SPR (Biacore T100), antibody captured on Protein-A, soluble dimeric CD73 injected 1.23-300 nM, 1:1 model, bivalent affinity. The method, then: SPR measurements were performed on a Biacore T100 apparatus (Biacore GE Healthcare) at 25° C. In all Biacore experiments HBS-EP+(Biacore GE Healthcare) and NaOH 10 mM served as running buffer and regeneration buffer respectively. Sensorgrams were analyzed with Biacore T100 Evaluation software. Protein-A was purchase from (GE Healthcare). Human soluble dimeric CD73 proteins were cloned, produced and purified at Innate Pharma.
Protein-A proteins were immobilized covalently to carboxyl groups in the dextran layer on a Sensor Chip CMS. The chip surface was activated with EDC/NHS (N-ethyl-N′-(3-dimethylaminopropyl) carbodiimide hydrochloride and N-hydroxysuccinimide (Biacore GE Healthcare). Protein-A was diluted to 10 μg/ml in coupling buffer (10 mM acetate, pH 5.6) and injected until the appropriate immobilization level was reached (i.e. 2000 RU). Deactivation of the remaining activated groups was performed using 100 mM ethanolamine pH 8 (Biacore GE Healthcare).
Affinity study was carried out according to a standard Capture-Kinetic protocol recommended by the manufacturer (Biacore GE Healthcare kinetic wizard). Serial dilutions of human recombinant soluble dimeric CD73 proteins, ranging from 1.23 to 300 nM were sequentially injected over the captured anti-CD73 antibodies and allowed to dissociate for 10 min before regeneration. The entire sensorgram sets were fitted using the 1:1 kinetic binding model. Bivalent affinities and kinetic association and dissociation rate constants are shown below in Table 2 below.
In general terms: SPR reads the build-up and loss of mass on a sensor chip optically.

As a reminder, the EC50 is the concentration giving half of the maximal effect.

B1: antibody 11E1 (antibody, human IgG1, V domains shown)
VH: EIQLQQSGPELVKPGASVKVSCKASGYAFTSYNMYWVKQSHGKSLEWIGYIDPYNGGTSYNQKFKGKATLTVDKSSSTAYMHLNSLTSEDSAVYYCARGYGNYKAWFAYWGQGTLVTVSA
VL: DAVMTQTPKFLLVSAGDRVTITCKASQSVTNDVAWYQQKPGQSPKLLIYYASNRYTGVPDRFTGSGYGTDFTFTISTVQAEDLAVYFCQQDYSSLTFGAGTKLELK
notes: Produced as chimeric human IgG1 with heavy chain N297Q (Kabat EU numbering); also called 1E11
Regarding B1, the “decrease of the enzymatic activity of cellular CD73 (MDA-MB-231 cells)” value (“decrease” below) in assay [1] was over 75%. Also, in assay [2], the “EC50 for neutralization of 5'-ectonucleotidase activity, mean over MDA-MB-231, H292 and A375 cells” value (“EC50 … over MDA-MB-231, H292 and A375 cells” below) stood at 0.1 µg/mL; the “EC70 for neutralization of 5'-ectonucleotidase activity, mean over MDA-MB-231, H292 and A375 cells” value (“EC70 … over MDA-MB-231, H292 and A375 cells” for short) was 0.15 µg/mL; the “EC100 for neutralization of 5'-ectonucleotidase activity, mean over MDA-MB-231, H292 and A375 cells” value (from here on “EC100 … over MDA-MB-231, H292 and A375 cells”) is 0.52 µg/mL. For the same molecule, the binding result in assay [3] was “no binding”. The EC50 in assay [4] worked out at 0.012 µg/mL. Also, the “EC50 for CD73 blockade (enzymatic activity of soluble recombinant human CD73-his)” value (shortened to “EC50 for CD73 blockade”) in assay [5] was 0.41 µg/mL. The Kd in assay [6] is 0.822 nM.

B2: antibody 6E1 (antibody, human IgG1, V domains shown)
VH: EFQLQQSGPELVKPGASVKVSCKASGYAFTSYNMYWVKQSHGKRLEWIGYIDPYNGGSSYNQKFKGKATLTVDKSSSTAYMHLNNLTSEDSAVYYCARGYNNYKAWFAYWGQGTLVTVSA
VL: SIVMTQTPKFLLVSAGDRVTITCKASQSVTNDVAWYQQKPGQSPKLLIYYASNRYTGVPDRFTGSGYGTDFTFTISTMQAEDLAVYFCQQDYSSLTFGAGTKLELK
notes: Produced as chimeric human IgG1 with heavy chain N297Q (Kabat EU numbering)
Regarding B2, the “decrease” value in assay [1] is over 75%. Also, in assay [2], the “EC50 … over MDA-MB-231, H292 and A375 cells” value was 0.13 µg/mL; the “EC70 … over MDA-MB-231, H292 and A375 cells” value came to 0.19 µg/mL; the “EC100 … over MDA-MB-231, H292 and A375 cells” value turned out to be 0.68 µg/mL. Further, the binding result in assay [3] is listed as “no binding”. In addition, in assay [4], the EC50 was 0.014 µg/mL. Moreover, in assay [5], the “EC50 for CD73 blockade” value stood at 0.33 µg/mL. In addition, in assay [6], the Kd is 0.819 nM.

B3: antibody 3C12 (antibody, human IgG1, V domains shown)
VH: QIQLQQSGPELVKPGASVKVSCKASGYAFASYNMNWVKQSHGKSLDWIGYIDPYNGGSSYNLTFKGKATLTVDKSSTTAYMHLNSLTSEDSAVYYCARGYGNYKAWFAYWGQGTLVTVSA
VL: DVVMTQTPKFLLVSAGDRVTITCKASQSVSNDVAWYQQKPGQSPKLLIYYASTRYTGVPDRFTGSGYGTDFTFTISTVQAEDLAVYFCQQDYSSLTFGAGTKLELKR
notes: Produced as chimeric human IgG1 with heavy chain N297Q (Kabat EU numbering); RTVAAP)
Consider B3, for which the “decrease” value in assay [1] was over 75%. Moreover, in assay [2], the “EC50 … over MDA-MB-231, H292 and A375 cells” value turned out to be 0.14 µg/mL; the “EC70 … over MDA-MB-231, H292 and A375 cells” value came to 0.18 µg/mL; the “EC100 … over MDA-MB-231, H292 and A375 cells” value is 0.3 µg/mL. The binding result in assay [3] is recorded as “no binding”. Also, the EC50 in assay [4] is 0.014 µg/mL. Moreover, the “EC50 for CD73 blockade” value in assay [5] was determined as 0.41 µg/mL. The Kd in assay [6] is 0.682 nM.
